{"source": "patent US10172953B2", "about": "“XTEN conjugate compositions and methods of making same” (Amunix Operating Inc., priority 2012, dated 2019)", "key": {"[1]": {"conditions": "cited from earlier work"}, "[2]": {"conditions": "cited from earlier work", "remark": "listed apart in the source"}, "[3]": {"assay": "Analytical size exclusion chromatography (apparent MW, hydrodynamic radius)", "assay_type": "physicochemical", "conditions": "for Apparent MW / RH (hydrodynamic radius): SEC; for Apparent Molecular Weight Factor: ratio of apparent molecular weight to calculated molecular weight", "description": "Size exclusion chromatography analyses were performed on fusion proteins containing various therapeutic proteins and unstructured recombinant proteins of increasing length. […] Chromatogram profiles were monitored using OD214 nm and OD280 nm."}, "[4]": {"conditions": "unmodified peptide/protein, humans/patients"}, "[5]": {"conditions": "unmodified peptide/protein, humans (oxyntomodulin: in human plasma; ghrelin: terminal half-life)"}}, "note": "Read-outs that look alike come from different tables or passages of the source. Numbered stars: 1 amine (or outer) side, 2 acyl side, 3 side chain; on linkers, the order of the positions; unused ones are H or OH. Square brackets hold non-standard residues; d marks the D form. Side chains are listed from the residue outwards. Ends that are not written are not given here. Peptide text beside a SMILES is read from it. * marks the point of attachment. Ethylenediamine = C(CN[*:2])N[*:1]; Hyp = O=C(O)[C@@H]1C[C@@H](O)CN1; Phg = N[C@H](C(=O)O)c1ccccc1; CO = O=C([*:1])[*:2]; Bn = c1ccc(C*)cc1"}
{"molecule": "C-peptide: human pancreatic protein, middle segment of proinsulin (SEQ ID NO: 556) (EAEDLQVGQVELGGGPGAGSLQPLALEGSLQ; listed as Homo sapiens)", "values": [{"measurement": "half-life", "setting": "[1]; unmodified peptide, humans", "result": "about 30 minutes"}]}
{"molecule": "ghrelin: human hormone GSSFLSPEHQRVQQRKESKKPPAKLQPR (SEQ ID NO: 557) (listed as Homo sapiens)", "values": [{"measurement": "half-life", "setting": "[1]; human, in vivo", "result": "10 to 30", "unit": "min"}]}
{"molecule": "POT4: synthetic cyclic peptide H-Ile-[Cys-Val-Val-Gln-Asp-Trp-Gly-His-His-Arg-Cys]-Thr-NH2, C3 complement inhibitor [reference compound]", "values": [{"measurement": "circulating in vivo half-life", "setting": "[2]; in vivo", "result": 480, "unit": "min"}]}
{"molecule": "α-MSH: 13-amino acid peptide N-Ac-SYSMGFRWGLPV (SEQ ID NO: 564) (not fully specified; printed as N-Ac-SYSMGFRWGLPV; ends and bridges not checked)", "values": [{"measurement": "half-life", "setting": "[2]; unmodified form, in words", "result": "mere seconds"}]}
{"molecule": "NCCCC[C@@H]1NC(=O)[C@@H](Cc2c[nH]c3ccccc23)NC(=O)[C@H](c2ccccc2)NC(=O)[C@@H]2C[C@@H](OC(=O)NCCN)CN2C(=O)[C@H](Cc2ccccc2)NC(=O)[C@H](Cc2ccc(OCc3ccccc3)cc2)NC1=O", "note": "[Pasireotide, [(3S,6S,9S,12R,15S,18S,20R)-9-(4-aminobutyl)-3-benzyl-12-(1H-indol-3-ylmethyl)-2,5,8,11,14,17-hexaoxo-15-phenyl-6-[(4-phenylmethoxyphenyl)methyl]-1,4,7,10,13,16-hexazabicyclo[16.3.0]henicosan-20-yl] N-(2-aminoethyl)carbamate, reference compound] (cyclo([Hyp]([CO-Ethylenediamine])[Phg][dW]KY(Bn)F))", "values": [{"measurement": "half-life", "setting": "[1]; [4]", "result": "720 to 1020", "unit": "min"}]}
{"molecule": "enfuvirtide", "values": [{"measurement": "half-life", "setting": "[1]; [4]", "result": 228, "unit": "min"}]}
{"molecule": "metreleptin: the commercially available form of leptin [reference compound]", "values": [{"measurement": "half-life", "setting": "[1]; [5]", "result": "8 to 30", "unit": "min"}]}
{"molecule": "oxyntomodulin: 37 amino acid peptide (SEQ ID NO: 552)", "values": [{"measurement": "half-life", "setting": "[1]; human, in vivo", "result": "~12", "unit": "min"}]}
{"molecule": "relaxin", "values": [{"measurement": "half-life", "setting": "[1]; [5]", "result": "less than 10 min"}]}
{"molecule": "CNP-22", "values": [{"measurement": "half-life", "setting": "[2]; unmodified peptide/protein (Fxa: plasma half-life)", "result": 2.6, "unit": "min"}]}
{"molecule": "IL-7: human interleukin encoded by the IL7 gene (SEQ ID NO: 562)", "values": [{"measurement": "half-life", "setting": "[1]; [4]", "result": "approximately 10 h"}]}
{"molecule": "GLP-(7-37)OH: form of human glucagon like peptide-1 (HAEGTFTSDVSSTLEGQAALEFIAWLVKGRG; listed as Homo sapiens)", "values": [{"measurement": "half-life", "setting": "[2]; unmodified peptide (GLP-1: biological half-life)", "result": "3 to 5", "unit": "min"}]}
{"molecule": "AC616: fusion: XTEN AE864, GLP2-2G", "values": [{"measurement": "Apparent MW", "setting": "[3]", "result": 1427, "unit": "kDa"}, {"measurement": "RH (hydrodynamic radius)", "setting": "[3]", "result": 10, "unit": "nm"}, {"measurement": "Apparent Molecular Weight Factor", "setting": "[3]", "result": 17.2}]}
{"molecule": "Glucagon-Y288: fusion protein of glucagon plus XTEN Y288 (protein) HSQGTFTSDYSKYLDSRRAQDFVQWLMNTGEGSGEGSEGEGSEGSGEGEGSEGSGEGEGGSEGSEGEGGSEGSEGEGGSEGSEGEGSGEGSEGEGGSEGSEGEGSGEGSEGEGSEGGSEGEGGSEGSEGEGSGEGSEGEGGEGGSEGEGSEGSGEGEGSGEGSEGEGSEGSGEGEGSGEGSEGEGSEGSGEGEGSEGSGEGEGGSEGSEGEGSEGSGEGEGGEGSGEGEGSGEGSEGEGGGEGSEGEGSGEGGEGEGSEGGSEGEGGSEGGEGEGSEGSGEGEGSEGGSEGEGSEGGSEGEGSEGSGEGEGSEGSGE", "values": [{"measurement": "Apparent MW", "setting": "[3]", "result": 370, "unit": "kDa"}, {"measurement": "RH (hydrodynamic radius)", "setting": "[3]", "result": 7.0, "unit": "nm"}, {"measurement": "Apparent Molecular Weight Factor", "setting": "[3]", "result": 12.9}]}
{"molecule": "AC398: fusion: XTEN AE288, FVII (protein) AVFVTQEEAHGVLHRRRRANAFLEELRPGSLERECKEEQCSFEEAREIFKDAERTKLFWISYSDGDQCASSPCQNGGSCKDQLQSYICFCLPAFEGRNCETHKDDQLICVNENGGCEQYCSDHTGTKRSCRCHEGYSLLADGVSCTPTVEYPCGKIPILEKRNASKPQGRIVGGKVCPKGECPWQVLLLVNGAQLCGGTLINTIWVVSAAHCFDKIKNWRNLIAVLGEHDLSEHDGDEQSRRVAQVIIPSTYVPGTTNHDIALLRLHQPVVLTDHVVPLCLPERTFSERTLAFVRFSLVSGWGQLLDRGATALELMVLNVPRLMTQDCLQQSRKVGDSPNITEYMFCAGYSDGSKDSCKGDSGGPHATHYRGTWYLTGIVSWGQGCATVGHFGVYTRVSQYIEWLQKLMRSEPRPGVLLRAPFPGSPGTSESATPESGPGSEPATSGSETPGTSESATPESGPGSEPATSGSETPGTSESATPESGPGTSTEPSEGSAPGSPAGSPTSTEEGTSESATPESGPGSEPATSGSETPGTSESATPESGPGSPAGSPTSTEEGSPAGSPTSTEEGTSTEPSEGSAPGTSESATPESGPGTSESATPESGPGTSESATPESGPGSEPATSGSETPGSEPATSGSETPGSPAGSPTSTEEGTSTEPSEGSAPGTSTEPSEGSAPGSEPATSGSETPGTSESATPESGPGTSTEPSEGSAPGSSS", "values": [{"measurement": "Apparent MW", "setting": "[3]", "result": 650, "unit": "kDa"}, {"measurement": "RH (hydrodynamic radius)", "setting": "[3]", "result": 8.2, "unit": "nm"}, {"measurement": "Apparent Molecular Weight Factor", "setting": "[3]", "result": 8.5}]}
{"molecule": "Endostatin: 20-kDa C-terminal fragment derived from type XVIII collagen (SEQ ID NO: 565) (protein, listed as Homo sapiens) HSHRDFQPVLHLVALNSPLSGGMRGIRGADFQCFQQARAVGLAGTFRAFLSSRLQDLYSIVRRADRAAVPIVNLKDELLFPSWEALFSGSEGPLKPGARIFSFDGKDVLRHPTWPQKSVWHGSDPNGRRLTESYCETWRTEAPSATGQASSLLGGRLLGQSAASCHHAYIVLCIENSFMTASK", "values": [{"measurement": "half-life", "setting": "[1]; [4]", "result": 780, "unit": "min"}]}
{"molecule": "AC404: fusion: XTEN AE864, FVII (protein) AVFVTQEEAHGVLHRRRRANAFLEELRPGSLERECKEEQCSFEEAREIFKDAERTKLFWISYSDGDQCASSPCQNGGSCKDQLQSYICFCLPAFEGRNCETHKDDQLICVNENGGCEQYCSDHTGTKRSCRCHEGYSLLADGVSCTPTVEYPCGKIPILEKRNASKPQGRIVGGKVCPKGECPWQVLLLVNGAQLCGGTLINTIWVVSAAHCFDKIKNWRNLIAVLGEHDLSEHDGDEQSRRVAQVIIPSTYVPGTTNHDIALLRLHQPVVLTDHVVPLCLPERTFSERTLAFVRFSLVSGWGQLLDRGATALELMVLNVPRLMTQDCLQQSRKVGDSPNITEYMFCAGYSDGSKDSCKGDSGGPHATHYRGTWYLTGIVSWGQGCATVGHFGVYTRVSQYIEWLQKLMRSEPRPGVLLRAPFPGSPGSPAGSPTSTEEGTSESATPESGPGTSTEPSEGSAPGSPAGSPTSTEEGTSTEPSEGSAPGTSTEPSEGSAPGTSESATPESGPGSEPATSGSETPGSEPATSGSETPGSPAGSPTSTEEGTSESATPESGPGTSTEPSEGSAPGTSTEPSEGSAPGSPAGSPTSTEEGTSTEPSEGSAPGTSTEPSEGSAPGTSESATPESGPGTSTEPSEGSAPGTSESATPESGPGSEPATSGSETPGTSTEPSEGSAPGTSTEPSEGSAPGTSESATPESGPGTSESATPESGPGSPAGSPTSTEEGTSESATPESGPGSEPATSGSETPGTSESATPESGPGTSTEPSEGSAPGTSTEPSEGSAPGTSTEPSEGSAPGTSTEPSEGSAPGTSTEPSEGSAPGTSTEPSEGSAPGSPAGSPTSTEEGTSTEPSEGSAPGTSESATPESGPGSEPATSGSETPGTSESATPESGPGSEPATSGSETPGTSESATPESGPGTSTEPSEGSAPGTSESATPESGPGSPAGSPTSTEEGSPAGSPTSTEEGSPAGSPTSTEEGTSESATPESGPGTSTEPSEGSAPGTSESATPESGPGSEPATSGSETPGTSESATPESGPGSEPATSGSETPGTSESATPESGPGTSTEPSEGSAPGSPAGSPTSTEEGTSESATPESGPGSEPATSGSETPGTSESATPESGPGSPAGSPTSTEEGSPAGSPTSTEEGTSTEPSEGSAPGTSESATPESGPGTSESATPESGPGTSESATPESGPGSEPATSGSETPGSEPATSGSETPGSPAGSPTSTEEGTSTEPSEGSAPGTSTEPSEGSAPGSEPATSGSETPGTSESATPESGPGTSTEPSEGSAPGSSS", "values": [{"measurement": "Apparent MW", "setting": "[3]", "result": 1900, "unit": "kDa"}, {"measurement": "RH (hydrodynamic radius)", "setting": "[3]", "result": 10.1, "unit": "nm"}, {"measurement": "Apparent Molecular Weight Factor", "setting": "[3]", "result": 14.7}]}
